Source: the supplement of paper PMC10567573

B1: C10orf62 (parent)
chain: MLWVQRKRRRKETSECPSDKDKSP

Variants of: B1
Assay: protein stability index of a GFP-peptide fusion (GPS, HEK-293T) (PSI 1-6); higher = more stable
Settings: c terminus: a fixed tail appended
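Note: lentivirally expressed fusions sorted by FACS into six bins by GFP to DsRed ratio, PSI derived from sequencing read proportions per bin multiplied by bin number.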

Row | Variant | protein stability index
1 | MLWVQRKRRRKETSECPHDKDKSP [S18H] | 2.85
2 | MLWVQRKRRRKETSECPIDKDKSP [S18I] | 2.41
3 | MLWVQRKRRRKETSECPWDKDKSP [S18W] | 2.63
4 | MLWVQRKRRRKETSECPMDKDKSP [S18M] | 2.94
5 | MLWVQRKRRRKETSECPSDKNKSP [D21N] | 3.44
6 | MLWVQRKRRRKETSECPSDKYKSP [D21Y] | 2.32
7 | MLWVQRKRRRKETSPCPSDKDKSP [E15P] | 2.99
8 | MLWVQRKRRRKETSHCPSDKDKSP [E15H] | 2.92
9 | MLWVQRKRRRKETSCCPSDKDKSP [E15C] | 3
10 | MLWVQRKRRRKETSQCPSDKDKSP [E15Q] | 3.56
11 | MLWVQRKRRRKETSRCPSDKDKSP [E15R] | 2.54
12 | MLWVQRKRRRKETSYCPSDKDKSP [E15Y] | 2.76
13 | MLWVQRKRRRKETSACPSDKDKSP [E15A] | 3.71
14 | MLWVQHKRRRKETSECPSDKDKSP [R6H] | 2.88
15 | MLWVQSKRRRKETSECPSDKDKSP [R6S] | 3.42
16 | MLWVQRNRRRKETSECPSDKDKSP [K7N] | 3.9
17 | MLWVQRRRRRKETSECPSDKDKSP [K7R] | 3.29
18 | MLWVQRHRRRKETSECPSDKDKSP [K7H] | 3.69
19 | MLWVQRKRRRKETSECPSDKDFSP [K22F] | 2.66
20 | MLWVQRKRRRKETSECPSDKDPSP [K22P] | 3.58
21 | MLWVQRKRRRKETSECPSDKDLSP [K22L] | 3.2
22 | MLWVQRKRRRKETSECPSDKDDSP [K22D] | 2.48
23 | MLWVQRKRRRKETSECPSDKDVSP [K22V] | 3.63
24 | MLWVQRKRRRKETSECPSDKDYSP [K22Y] | 3.12

Row | Variant | protein stability index
25 | MLWVQRKRRRKETSECPSDKDASP [K22A] | 4.4
26 | MLWFQRKRRRKETSECPSDKDKSP [V4F] | 2.94
27 | MLWTQRKRRRKETSECPSDKDKSP [V4T] | 2.73
28 | MLWWQRKRRRKETSECPSDKDKSP [V4W] | 2.57
29 | MLWPQRKRRRKETSECPSDKDKSP [V4P] | 3.11
30 | MLWVQRKRRRKATSECPSDKDKSP [E12A] | 3.13
31 | MLWVQRKRRRKGTSECPSDKDKSP [E12G] | 2.49
32 | MLWVQRKRRRKYTSECPSDKDKSP [E12Y] | 2.68
33 | MLWVQRKRRRKFTSECPSDKDKSP [E12F] | 2.5
34 | MLWVQRKRRRKPTSECPSDKDKSP [E12P] | 3.67
35 | MLWVQRKRRRKTTSECPSDKDKSP [E12T] | 2.92
36 | MLWVQRKRRRKHTSECPSDKDKSP [E12H] | 3.16
37 | MLWVQRKRRRKETSECQSDKDKSP [P17Q] | 3.36
38 | MLWVQRKRRRKETSECFSDKDKSP [P17F] | 2.51
39 | MLWVQRKRRRKETSECYSDKDKSP [P17Y] | 2.27
40 | MLWVQRKRRRKETSECDSDKDKSP [P17D] | 2.6
41 | MLWVQRKRRRKETSECPSDADKSP [K20A] | 2.74
42 | MLWVQRKRRRKETSECPSDFDKSP [K20F] | 2.12
43 | MLWVQRKRRRKETSECPSDSDKSP [K20S] | 2.73
44 | MLWVQRKRRRKETSECPSDQDKSP [K20Q] | 2.46
45 | MLWVQRKRRRKETSECPSDNDKSP [K20N] | 4.29
46 | MLWVQRKRRNKETSECPSDKDKSP [R10N] | 3.78
47 | MLWVQRKRRTKETSECPSDKDKSP [R10T] | 3.79
48 | MLWVQRKRRHKETSECPSDKDKSP [R10H] | 3.45

Row | Variant | protein stability index
49 | MLWVIRKRRRKETSECPSDKDKSP [Q5I] | 2.21
50 | MLWVNRKRRRKETSECPSDKDKSP [Q5N] | 3.44
51 | MLWVHRKRRRKETSECPSDKDKSP [Q5H] | 2.97
52 | MLWVARKRRRKETSECPSDKDKSP [Q5A] | 3.98
53 | MLWVYRKRRRKETSECPSDKDKSP [Q5Y] | 2.8
54 | MLWVLRKRRRKETSECPSDKDKSP [Q5L] | 2.4
55 | NLWVQRKRRRKETSECPSDKDKSP [M1N] | 4.55
56 | MKWVQRKRRRKETSECPSDKDKSP [L2K] | 2.98
57 | MWWVQRKRRRKETSECPSDKDKSP [L2W] | 2.53
58 | MIWVQRKRRRKETSECPSDKDKSP [L2I] | 3.21
59 | MEWVQRKRRRKETSECPSDKDKSP [L2E] | 4
60 | MLWVQRKQRRKETSECPSDKDKSP [R8Q] | 4.1
61 | MLWVQRKIRRKETSECPSDKDKSP [R8I] | 3.36
62 | MLWVQRKERRKETSECPSDKDKSP [R8E] | 5.08
63 | MLWVQRKRRRKETAECPSDKDKSP [S14A] | 3.82
64 | MLWVQRKRRRKETGECPSDKDKSP [S14G] | 3.1
65 | MLWVQRKRRRKETNECPSDKDKSP [S14N] | 3.14
66 | MLWVQRKRRRKETTECPSDKDKSP [S14T] | 2.55
67 | MLWVQRKRRRKETMECPSDKDKSP [S14M] | 3.31
68 | MLRVQRKRRRKETSECPSDKDKSP [W3R] | 4.46
69 | MLAVQRKRRRKETSECPSDKDKSP [W3A] | 4.3
70 | MLPVQRKRRRKETSECPSDKDKSP [W3P] | 5.09
71 | MLWVQRKRRRKETSECPSDKDKTP [S23T] | 3.05
72 | MLWVQRKRRRKETSECPSDKDKKP [S23K] | 2.27

Row | Variant | protein stability index
73 | MLWVQRKRRRKETSECPSDKDKAP [S23A] | 3.2
74 | MLWVQRKRRRKETSECPSDKDKNP [S23N] | 3.29
75 | MLWVQRKRRRKETSECPSDKDKIP [S23I] | 2.4
76 | MLWVQRKRRRKETSECPSDKDKWP [S23W] | 1.92
77 | MLWVQRKRRRKETSECPSDKDKLP [S23L] | 3.38
78 | MLWVQRKRRRKETSECPSDKDKSC [P24C] | 3.2
79 | MLWVQRKRRRKETSECPSDKDKST [P24T] | 2.98
80 | MLWVQRKRRRKETSECPSDKDKSD [P24D] | 3.28
81 | MLWVQRKRRRKETSECPSDKDKSR [P24R] | 3.31
82 | MLWVQRKRRRYETSECPSDKDKSP [K11Y] | 2.31
83 | MLWVQRKRRRMETSECPSDKDKSP [K11M] | 2.71
84 | MLWVQRKRRRAETSECPSDKDKSP [K11A] | 4.09
85 | MLWVQRKRRRIETSECPSDKDKSP [K11I] | 2.9
86 | MLWVQRKRTRKETSECPSDKDKSP [R9T] | 3.49
87 | MLWVQRKRMRKETSECPSDKDKSP [R9M] | 3.63
88 | MLWVQRKRGRKETSECPSDKDKSP [R9G] | 3.2
89 | MLWVQRKRNRKETSECPSDKDKSP [R9N] | 3.18
90 | MLWVQRKRRRKERSECPSDKDKSP [T13R] | 3.48
91 | MLWVQRKRRRKEYSECPSDKDKSP [T13Y] | 2.07
92 | MLWVQRKRRRKEQSECPSDKDKSP [T13Q] | 2.58
93 | MLWVQRKRRRKEPSECPSDKDKSP [T13P] | 3.04
94 | MLWVQRKRRRKEESECPSDKDKSP [T13E] | 2.99
